In US6855873:
pKd: −log10 of the molar value. “And” between values parts separate entries of the source, which are not always exact repeats. Identical values can stand only once. Like-named read-outs stand apart in the source and are kept apart here.

Columns and labels:
[1] = target: ICP receptor sites on brush border membrane vesicles of Heliothis virescens (Heliothis virescens)
[2] = target: ICP receptor sites on brush border membrane vesicles of Manduca sexta (reference, non-selected strain) (Manduca sexta)
[3] = target: ICP receptor sites on brush border membrane vesicles of the Dipel-resistant Plutella xylostella strain PxR (Plutella xylostella); experiment: cell-based or functional assay; parameters: unit not given beside the values
[4] = target: ICP receptor sites on brush border membrane vesicles of the sensitive Plutella xylostella strain PxS (Plutella xylostella); experiment: cell-based or functional assay; parameters: unit not given beside the values
[5] = target: ICP receptor sites on brush border membrane vesicles of Manduca sexta (reference, non-selected strain) (Manduca sexta); experiment: cell-based or functional assay
[6] = target: ICP receptor sites on brush border membrane vesicles of the Bt18 selected Manduca sexta strain (Manduca sexta); experiment: cell-based or functional assay
[7] = target: ICP receptor sites on brush border membrane vesicles of the Bt2 selected Manduca sexta strain (Manduca sexta); experiment: cell-based or functional assay
[8] = target: ICP receptor sites on brush border membrane vesicles of the sensitive Plutella xylostella strain PxS (Plutella xylostella); experiment: 125I-toxin binding on P. xylostella BBMV
[9] = target: ICP receptor sites on brush border membrane vesicles of the Bt18 selected Manduca sexta strain (Manduca sexta)
[10] = target: ICP receptor sites on brush border membrane vesicles of Heliothis virescens (Heliothis virescens); experiment: 125I-toxin competition binding on BBMV, filtration, LIGAND analysis
[11] = target: ICP receptor sites on brush border membrane vesicles of Manduca sexta (reference, non-selected strain) (Manduca sexta); experiment: as above
[12] = target: ICP receptor sites on brush border membrane vesicles of the Bt2/Bt18 selected Manduca sexta strain (Manduca sexta)
[13] = target: ICP receptor sites on brush border membrane vesicles of Pieris brassicae (Pieris brassicae); experiment: 125I-toxin competition binding on P. brassicae BBMV, LIGAND analysis
[14] = target: ICP receptor sites on brush border membrane vesicles of Manduca sexta (reference, non-selected strain) (Manduca sexta); remark: listed apart in the source
[15] = target: ICP receptor sites on brush border membrane vesicles of the Dipel-resistant Plutella xylostella strain PxR (Plutella xylostella); experiment: 125I-toxin binding on P. xylostella BBMV
[16] = target: ICP receptor sites on brush border membrane vesicles of Manduca sexta (reference, non-selected strain) (Manduca sexta); remark: listed apart in the source
[17] = target: ICP receptor sites on brush border membrane vesicles of Manduca sexta (reference, non-selected strain) (Manduca sexta); remark: listed apart in the source

Bt3 toxin, sequence (P0A366 29-618 limits assumed): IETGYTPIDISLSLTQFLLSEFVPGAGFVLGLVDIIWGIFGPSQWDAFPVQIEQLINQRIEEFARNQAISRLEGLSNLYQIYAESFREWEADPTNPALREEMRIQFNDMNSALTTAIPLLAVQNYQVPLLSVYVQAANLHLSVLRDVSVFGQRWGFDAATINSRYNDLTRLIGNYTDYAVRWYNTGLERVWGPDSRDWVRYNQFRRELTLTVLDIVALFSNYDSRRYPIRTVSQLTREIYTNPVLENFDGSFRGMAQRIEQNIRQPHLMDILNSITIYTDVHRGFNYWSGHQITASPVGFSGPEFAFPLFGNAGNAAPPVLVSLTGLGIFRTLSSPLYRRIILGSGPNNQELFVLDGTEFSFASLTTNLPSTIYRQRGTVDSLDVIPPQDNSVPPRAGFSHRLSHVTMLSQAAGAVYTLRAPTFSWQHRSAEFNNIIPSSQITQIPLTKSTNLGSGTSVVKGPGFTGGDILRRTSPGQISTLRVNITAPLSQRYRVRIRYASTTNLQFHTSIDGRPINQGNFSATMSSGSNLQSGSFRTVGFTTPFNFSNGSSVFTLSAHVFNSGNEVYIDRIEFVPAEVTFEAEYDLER
Bt14 toxin, sequence (P0A374 30-647 limits assumed): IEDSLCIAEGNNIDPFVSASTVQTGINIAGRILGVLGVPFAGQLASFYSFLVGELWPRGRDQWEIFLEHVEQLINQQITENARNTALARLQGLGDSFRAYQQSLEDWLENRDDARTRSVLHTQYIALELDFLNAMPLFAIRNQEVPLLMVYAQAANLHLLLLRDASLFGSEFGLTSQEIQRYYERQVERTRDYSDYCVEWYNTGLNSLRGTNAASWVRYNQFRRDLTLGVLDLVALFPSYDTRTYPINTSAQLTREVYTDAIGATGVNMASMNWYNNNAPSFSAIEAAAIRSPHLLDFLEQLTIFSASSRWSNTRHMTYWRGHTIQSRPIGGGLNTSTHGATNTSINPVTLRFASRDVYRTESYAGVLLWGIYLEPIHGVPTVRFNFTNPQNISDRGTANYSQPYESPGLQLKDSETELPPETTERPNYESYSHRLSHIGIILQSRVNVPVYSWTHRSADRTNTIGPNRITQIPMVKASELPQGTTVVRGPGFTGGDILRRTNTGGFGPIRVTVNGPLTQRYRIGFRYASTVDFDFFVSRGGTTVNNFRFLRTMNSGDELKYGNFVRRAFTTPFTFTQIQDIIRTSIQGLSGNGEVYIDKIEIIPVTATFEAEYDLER

Substance | amount bound with labeled toxin alone (cpm) [1] [cpm] | amount bound with labeled toxin alone (cpm) [2] [cpm] | LC50 (larval mortality, artificial diet) (ng protein per cm^2 of artificial diet) [3] | LC50 (larval mortality, artificial diet) (ng protein per cm^2 of artificial diet) [4] | pKd [8] | Rt (binding site concentration) (pmol/mg protein) [8] | pKd [10] | Rt (binding site concentration) (pmol/mg vesicle protein) [10] | pKd [11] | Rt (binding site concentration) (pmol/mg vesicle protein) [11] | pKd [13] | Rt (binding site concentration) (pmol/mg vesicle protein) [13] | further results
Bt2 toxin (from UniProt P0A370 29-607) (ligand) | 1780 | 1820 | > 1350 | 6.7 | 8.09 | 1.6 | 9.22 | 9.7 | 9.40 | 3.4 | 8.55 | 12.9 | LC50 (Bt2 sensitivity) [5]: 20 ng/cm^2; LC50 (Bt2 sensitivity) [6]: 4 ng/cm^2; LC50 of the 20th generation [7]: 6400 µg/g; pKd [9]: 9.40; Rt (binding site concentration) (pmoles/mg vesicle protein) [9]: 20.8; pKd [12]: 9.40; Rt (binding site concentration) (pmol/mg vesicle protein) [12]: 3.4
Bt3 toxin (from UniProt P0A366 29-618) (ligand) | 472 | 601 |  |  |  |  | 8.92 | 3.7 | 8.82 | 9.8 |  |  | 
Bt14 toxin (from UniProt P0A374 30-647) (ligand) |  |  |  |  |  |  |  |  |  |  | 8.08 | 21.4 | 
Bt15 toxin (from UniProt P0A376 28-627) (ligand) |  |  | 120 | 133 | 8.72 | 4.2 |  |  |  |  |  |  | pKd [14]: 9.52 and 8.54; pKd [15]: 8.43; Rt (binding site concentration) (pmol/mg protein) [15]: 5.8; Rt1 (binding site concentration) (pmol/mg vesicle protein) [16]: 5.9; Rt2 (binding site concentration) (pmol/mg vesicle protein) [17]: 6.7
Bt73 toxin (from UniProt P05068 29-623) (ligand) | 6610 | 2380 |  |  |  |  | 9.10 | 19.5 | 9.22 | 4 |  |  | 
